Ends that are not written are not given here.
T1: human GIP receptor (human, UniProt P48546 22-466)
T1 sequence (looked up): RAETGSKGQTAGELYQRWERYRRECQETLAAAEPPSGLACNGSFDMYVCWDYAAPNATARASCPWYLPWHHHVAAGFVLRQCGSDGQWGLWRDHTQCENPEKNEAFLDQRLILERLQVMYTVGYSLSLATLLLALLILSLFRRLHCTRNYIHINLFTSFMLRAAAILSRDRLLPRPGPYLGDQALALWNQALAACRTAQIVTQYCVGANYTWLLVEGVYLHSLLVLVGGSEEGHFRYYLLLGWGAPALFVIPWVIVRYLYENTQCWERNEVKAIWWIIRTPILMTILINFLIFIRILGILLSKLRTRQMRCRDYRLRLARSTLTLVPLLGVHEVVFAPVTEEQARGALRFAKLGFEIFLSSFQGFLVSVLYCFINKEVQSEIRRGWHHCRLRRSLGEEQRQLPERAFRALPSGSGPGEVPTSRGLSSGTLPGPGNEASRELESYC

T2: mouse GIP receptor (mouse, UniProt Q0P543 19-460)
T2 sequence (looked up): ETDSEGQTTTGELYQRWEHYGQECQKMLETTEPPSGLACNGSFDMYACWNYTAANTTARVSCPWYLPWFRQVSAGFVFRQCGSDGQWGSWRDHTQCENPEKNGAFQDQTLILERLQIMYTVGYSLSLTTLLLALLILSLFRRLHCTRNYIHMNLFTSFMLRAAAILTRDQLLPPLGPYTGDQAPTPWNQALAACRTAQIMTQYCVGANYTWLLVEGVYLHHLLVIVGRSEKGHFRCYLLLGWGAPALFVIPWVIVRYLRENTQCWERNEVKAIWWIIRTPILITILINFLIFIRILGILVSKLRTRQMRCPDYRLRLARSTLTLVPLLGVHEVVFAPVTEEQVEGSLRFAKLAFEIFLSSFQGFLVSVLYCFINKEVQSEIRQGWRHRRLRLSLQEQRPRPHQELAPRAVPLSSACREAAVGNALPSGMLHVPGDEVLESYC


Assays:
Test in all cases: cell-based or functional assay
human GLP-1 receptor = human GLP-1 receptor (human, UniProt P43220 24-463)
human glucagon receptor = human glucagon receptor (human, UniProt P47871 26-477)
human GIP receptor = target: T1, human GIP receptor
mouse GIP receptor = target: T2, mouse GIP receptor

| Binder | cAMP EC50 (human GLP-1 receptor) | cAMP EC50 (human glucagon receptor) | cAMP EC50 (human GIP receptor) | cAMP EC50 (mouse GIP receptor) | cAMP EC50, hGIPr (C3) line (human GIP receptor) |
| --- | --- | --- | --- | --- | --- |
| IP229 (Fc fusion) YSEGTFTSDYSKLLEEEAVRLFIEWLLAGAAAGGSGSTASSGSGSATGGGGAATHTCPPCPAPEF | 0.15 nM | 28 nM | 0.0062 nM | – | – |
| IP255 (Fc fusion) YSEGTFTSDYSKLLEEEAVRLFIEWLKNGTGGGGGSGGGGSGGGGSGGGGSATHTCPPCPAPEF | 0.22 nM | > 4600 nM | 0.07 nM | – | – |
| IP265 (Fc fusion) YSEGTFTSDYSKLLEEEAVRLFIEWLVKGPGKGGGSGGGGSGGGGSGGGGSATHTCPPCPAPEF | 0.1 nM | > 13000 nM | 0.015 nM | – | – |
| IP290 (Fc fusion) YSEGTFTSDYSKLLEEEAVRLFIEWLVKGPGGGGGGGGGGGGGGGGGGGGACPPC | 0.14 nM | > 2590 nM | 0.018 nM | – | – |
| IP411 (Fc fusion) YGEGTFTSDYSKLLEEEAVRLFIEWLVKGPGGGGGGGGGGGGGGGGGGGGACPPC | 0.42 nM | > 631 nM | – | > 631 nM | – |
| IP210 (Fc fusion) YSEGTFTSDLSKLLEEEAVRLFIEWLVKGPAAAGGSGSTASSGSGSATGGGGAATHTCPPCPAPEF | 0.18 nM | – | 0.019 nM | – | – |
| IP211 (Fc fusion) YSEGTFTSDYSSYMEEEAVRLFIEWLVKGPAAAGGSGSTASSGSGSATGGGGAATHTCPPCPAPEF | 0.23 nM | – | 0.5 nM | – | – |
| YSEGTFTSDYSKLLEEEAVRLFIEWLVKGPGGGGGGGATHTCPPC (Fc fusion) [IP283] | 0.56 nM | > 17000 nM | 0.049 nM | – | – |
| IP198 (Fc fusion) HGEGTFTSDVSSYMERQAIDEFIAWLLKGGAAAGGSGSTASSGSGSATGGGGAATHTCPPCPAPEF | 0.042 nM | – | 6.3 nM | – | – |
| IP206 (Fc fusion) HGEGTFTSDVSSYMEAQSIREFIAWLVKGPAPPGGSGSTASSGSGSATGGGGAATHTCPPCPAPEF | 0.084 nM | – | – | – | – |
| IP421 (Fc fusion) HGEGTFTSDLSKQMEEECVRLFIEWLKNGGPSSGAPPPGCGSGGGGSGGGGSGGGGSGGGGSGGGGSGGGGSGGGGSACPPC | 3 nM | > 106 nM | – | > 106 nM | – |
| IP281 (Fc fusion) YSEGTFTSDYSKLLEEEAVRLFIEWLVKGPGGGGGSGGGGSGGGGSGGGGSACPPC | 0.087 nM | 3800 nM | 0.014 nM | – | – |
| IP256 (Fc fusion) YSEGTFTSDYSKLLEEEAVRLFIEWLLAGGHNITQGGGGGSGGGGSGGGGSGGGGSATHTCPPCPAPEF | 0.4 nM | > 420 nM | 0.037 nM | – | – |
| IP285 (Fc fusion) YSEGTFTSDYSKLLEEEAVRLFIEWLVKGPGGGGGGGGGGGGGGGGGGGGGGGATHTCPPC | 0.076 nM | 1600 nM | 0.0087 nM | – | – |
| IP239 (Fc fusion) YSEGTFTSDYSKLLEEEAVRLFIEWLVKGPAAAGGSGSTASSGSGSATGGGGAACPPCPAPEF | 0.088 nM | > 990 nM | 0.008 nM | – | – |
| YSEGTFTSDYSKLLEEEAVRLFIEWLVKGPGGGGGGGGGGGGATHTCPPC (Fc fusion) [IP284] | 0.2 nM | 18000 nM | 0.039 nM | – | – |
| IP172 (Fc fusion) HGEGTFTSDVSSYMERQAIDEFIAWLLAGAAAGGSGSTASSGSGSATGGGGAATHTCPPCPAPEF | 0.057 nM | > 15000 nM | 16 nM | – | – |
| IP175 (Fc fusion) HGEGTFTSDVSSYMESQLVREFIAWLVKGAAAGGSGSTASSGSGSATGGGGAATHTCPPCPAPEF | 0.051 nM | – | – | – | – |
| IP214 (Fc fusion) HGEGTFTSDVSSYMEAQKIDEFIAWLVKGAPPGGSGSTASSGSGSATGGGGAATHTCPPCPAPEF | 0.075 nM | – | – | – | – |
| IP215 (Fc fusion) HGEGTFTSDVSSYMESQLVDEFIAWLVKGAAAGGSGSTASSGSGSATGGGGAATHTCPPCPAPEF | 0.05 nM | – | – | – | – |
| YSEGTFTSDYSKLLEEEAVRLFIEWLVKGPGGGGGSATHTCPPCPAPEF (Fc fusion, cysteine pairing not given here; also: fused to IgG1-TM Fc) [IP234] | 0.74 nM | > 15000 nM | 0.043 nM | – | – |
| IP252 (Fc fusion) YSEGTFTSDYSKLLEEEAVRLFIEWLVKGPGGGGGSGGGGSGGGGSAESKYGPPCPPCPAPEAA | 0.19 nM | > 3200 nM | 0.024 nM | – | – |
| IP423 (Fc fusion) YSEGTHTSDLRILLEEEAVRLFIEFLLAGGGSGGGGSGGGGSGGGGSGGGGSGGGGSGGGGSGGGGSACPPC | > 34.2 nM | > 34.2 nM | – | 12 nM | – |
| IP410 (Fc fusion) YSEGTFTSLYRIHKEEEAVRLFIEKLLAGGGSGGGGSGGGGSGGGGSGGGGSGGGGSGGGGSGGGGSACPPC | > 7.99 nM | > 7.99 nM | – | – | > 7.99 nM |
| IP416 (Fc fusion) YSEGTFTSDYSKLLEEEAVRLFIEWLLAGGGSGGGGSGGGGSGGGGSGGGGSGGGGSGGGGSGGGGSACPPC | 0.1 nM | 3.4 nM | – | 1.1 nM | – |
| IP415 (Fc fusion) HSQGTFTSDYSKILEEEAVRLFIEWLLAGGGSGGGGSGGGGSGGGGSGGGGSGGGGSGGGGSGGGGSACPPC | 0.038 nM | 0.018 nM | – | 5.6 nM | – |
| IP254 (Fc fusion) YSEGTFTSDYSKLLEEEAVRLFIEWLLAGNGTGGGGSGGGGSGGGGSGGGGSATHTCPPCPAPEF | 0.53 nM | 160 nM | 0.026 nM | – | – |
| IP286 (Fc fusion) YSEGTFTSDYSKLLEEEAVRLFIEWLVKGPGGGGGGGGGGGGGGGGGGGGGGGGGGGATHTCPPC | 0.072 nM | 920 nM | 0.008 nM | – | – |
